Where no end group is shown, it is not given here.
Legend:
hAPJ [1] = biological target: T1, hAPJ (Homo sapiens, UniProt P35414); assay: Reporter gene assay (hAPJ-CRE-Luciferase CHO-DHFR- cells) of in vitro activation of Elabela/APJ signaling pathway; assay type: cell-based; settings: for EC50: 0.6 μM forskolin, 6 hours at 37° C., Bright Glo readout; for blocking or activation of APJ receptor by the antibody: reporter gene assay
T1 construct: expressed in transfected cells; host or cells: CHO-DHFR- cells expressing hAPJ and a CRE-luciferase reporter
T1 sequence (P35414 1-380): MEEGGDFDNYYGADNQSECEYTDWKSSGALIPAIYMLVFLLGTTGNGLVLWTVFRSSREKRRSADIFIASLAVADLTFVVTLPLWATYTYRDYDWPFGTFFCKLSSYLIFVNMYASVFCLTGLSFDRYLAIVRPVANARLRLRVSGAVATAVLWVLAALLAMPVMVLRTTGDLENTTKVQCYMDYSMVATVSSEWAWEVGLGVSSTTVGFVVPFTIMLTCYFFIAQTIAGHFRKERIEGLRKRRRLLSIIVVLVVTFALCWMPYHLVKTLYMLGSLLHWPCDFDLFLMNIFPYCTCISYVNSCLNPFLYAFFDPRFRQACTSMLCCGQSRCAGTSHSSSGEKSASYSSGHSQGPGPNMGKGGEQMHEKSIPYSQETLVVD
Description: 35000 hAPJ-CRE-Luciferase expressing CHO-DHFR-cells per well were seeded into 96 well plate, and cultured overnight at 37° C. The culture supernatant was removed the second day, cells were washed twice with serum-free medium, and the residue liquid was aspirated. 50 μL of 0.6 μM forskolin was added in 96 well plate in advance, then 50 μL of Elabela fusion protein or Elabela-11 polypeptide diluted in serum-free medium was added, and incubated at 37° C. for 6 hours. After stimulation, 100 μL Bright Glo chemical luminescence substrate (Promega) was added, then the cell lysate was transferred to white 96 well plate, and the relative intensity of […] was read in the SpectraMax L (Molecular Devices). The data were fitted with prism5.0 and EC50 was calculated.

hAPJ [2] = biological target: T1, hAPJ; assay: FACS analysis of binding of APJ antibodies to CHO-DHFR-hAPJ cells; settings: mouse ascites antibody at 500 nM and 4 nM on CHO-DHFR-hAPJ; negative control 500 nM on blank CHO-DHFR- cells
Description: PBS containing EDTA was used to detach and collect 10^5 CHO-DHFR-hAPJ cells into 1.5 mL EP tubes. The supernatant was removed after centrifugation. The negative control sample was resuspended with a FACS loading buffer (PBS, 2% FBS). For the positive control, 200 μL antibody supernatant with certain concentration was added to resuspend cells and then incubated at room temperature; the cells were then centrifuged at 1500 rpm to remove the supernatant, washed with a FACS loading buffer and centrifuged again. The cells were resuspended followed by addition (200 μL/well) of a FITC labeled goat anti-mouse fluorescent secondary antibody at 1:50 dilution and incubated at room temperature for 30 min in the dark. Supernatant was removed after centrifugation, cells were washed with FACS loading buffer, centrifuged again and resuspended with the loading buffer for analysis.

Row | Molecule | EC50 (hAPJ [1]) [nM] | blocking or activation of APJ receptor by the antibody (hAPJ [1]) | specific binding to hAPJ (FACS peak shift versus negative control) (hAPJ [2]) | also measured
1 | L5H5 and Linker2-EA3: fusion protein of hAPJ antibody L5H5 and Linker2-EA3 (comprising SEQ ID NO: 123 and SEQ ID NO: 109) (GGGGSGGGGSQRRCMPLHSRVPMPF; also: fused to hAPJ antibody L5H5) | 20.3 | – | – | EC50 (hAPJ [1]; listed as L5H5 and linker2-EA3): 20.3 nM
2 | L5H5 and Linker2-EA4: fusion protein of hAPJ antibody L5H5 and Linker2-EA4 (comprising SEQ ID NO: 123 and SEQ ID NO: 116) (GGGGSGGGGSQRRCLSHKGPMPF; also: fused to hAPJ antibody L5H5) | 5.4 | – | – | EC50 (hAPJ [1]; listed as L5H5 and linker2-EA4): 5.43 nM
3 | L5H5 and Linker2-EA5: fusion protein of hAPJ antibody L5H5 and Linker2-EA5 (comprising SEQ ID NO: 123 and SEQ ID NO: 94) (GGGGSGGGGSQRRCMPLHSRVPAP; also: fused to hAPJ antibody L5H5) | 2.6 | – | – | EC50 (hAPJ [1]; listed as L5H5 and linker2-EA5): 2.55 nM
4 | L4H4: APJ antibody with light chain variable domain SEQ ID NO: 62 and heavy chain variable domain SEQ ID NO: 67 (antibody, listed as Mus musculus, V domains shown) VH: EIKLVESGGGLVKPRGSLKLSCAASGFTFSSYAMSWVRQTPEKRLEWVASISSGGSIYLPDSLKGRFTISRDNAWNILYLQMNSLKSEDTAMYYCTRGRGNSSAWFAYWGQGTLVTVSA VL: DVLMTQTPLSLPVSLGDQASISCRSDQSLVHRTGNTHLDWYLQKPGQSPKLLIYKVSNRFSGVPDRFSGSGSGTDFTLKISRVEAEDLGVYYCFQASHIPFTFGSGTKLEIKR | – | did not block or activate APJ receptor | shifted to the right obviously | –
5 | L1H1: APJ antibody with light chain variable domain SEQ ID NO: 59 and heavy chain variable domain SEQ ID NO: 64 (antibody, listed as Mus musculus, V domains shown) VH: EVQLIETGGGLVQPTGSLQLSCAASGFPFNINAMNWVRQAPGKGLEWVARIRSKSNNYATYYADSVKDRFTISRDDSQSILYLQMNNLKTEDSAMYFCVRGPYLYAMDYWGQGTSVTVSS VL: DIQMNQSPSSLSASLGDTITITCHASQNIHVWLSWYQQKPGNIPKLLIYKASNLHTGVPSRFSGSGSGTGFTLTISSLQPEDIATYYCQQGHSYPLTFGGGTKLEIKR | – | did not block or activate APJ receptor | shifted to the right obviously | –
